Laboratory results as given in patent US9713649.

Target: Prostate specific membrane antigen (PSMA) (UniProt Q04609)
Assay: competitive binding on LNCaP or PC3-PIP cells; displacement of 12 nM N-[N-[(S)-1,3-dicarboxypropyl]carbamoyl]-S-[3H]-methyl-L-cysteine, scintillation counting

Chain of Prostate specific membrane antigen (PSMA) (Q04609 whole entry): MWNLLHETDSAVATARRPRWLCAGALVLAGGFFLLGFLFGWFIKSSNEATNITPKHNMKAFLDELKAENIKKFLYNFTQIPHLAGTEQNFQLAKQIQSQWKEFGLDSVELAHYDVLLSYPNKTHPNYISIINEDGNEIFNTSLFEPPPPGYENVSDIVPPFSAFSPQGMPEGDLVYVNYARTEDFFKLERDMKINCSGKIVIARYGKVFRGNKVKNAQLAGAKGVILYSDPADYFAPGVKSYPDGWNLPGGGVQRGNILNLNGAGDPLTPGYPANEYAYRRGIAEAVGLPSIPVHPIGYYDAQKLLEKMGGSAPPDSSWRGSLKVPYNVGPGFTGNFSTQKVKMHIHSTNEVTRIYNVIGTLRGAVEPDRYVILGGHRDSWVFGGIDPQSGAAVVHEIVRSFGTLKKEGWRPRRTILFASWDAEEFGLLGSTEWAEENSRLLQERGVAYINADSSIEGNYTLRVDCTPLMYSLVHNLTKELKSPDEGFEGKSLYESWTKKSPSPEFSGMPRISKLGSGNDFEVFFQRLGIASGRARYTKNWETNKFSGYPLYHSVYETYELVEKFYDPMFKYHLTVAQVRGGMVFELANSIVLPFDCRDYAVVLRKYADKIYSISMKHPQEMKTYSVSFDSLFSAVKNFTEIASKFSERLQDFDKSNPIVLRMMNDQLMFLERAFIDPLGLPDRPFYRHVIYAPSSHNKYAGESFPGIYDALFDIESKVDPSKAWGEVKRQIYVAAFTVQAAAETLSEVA

- IC50: 2.2 nM
Substance: ZJ-MCC-Ahx-dEdEdEG (Compound 1) (peptide)
